The record followed here is publication PMC5663884, “Compositional and expression analyses of the glideosome during the Plasmodium life cycle reveal an additional myosin light chain required for maximum motility” (The Journal of Biological Chemistry, 2017).

One data set relates to MyoA. Put plainly: immunoprecipitation with GFP-specific antibodies, Western blot: MyoA-GFP. Format: binding, P. falciparum. The settings on record: schizont lysate, probed with anti-PfELC antibodies. The protocol:
(§1) Parasite lysates were precleared by incubation with blocked agarose beads for 1 h, and then the supernatant was incubated with GFP-Trap agarose beads for 2 h at 4 °C with end-over-end rotation. […] Finally, the beads were resuspended in 5 volumes of 2× SDS-PAGE sample buffer and boiled for 5 min before fractionation of the proteins by SDS-PAGE.

The nature of data set [1]: circular dichroism of recombinant PfELC. The data set is classed as physicochemical. The protocol: Far-UV CD spectra were recorded on a Jasco J-815 spectropolarimeter fitted with a cell holder thermostatted by a CDF-426S Peltier unit. CD measurements were made at a protein concentration of 10 μM PfELC in 25 mM Tris-HCl, pH 8.0, 50 mM NaCl using fused silica cuvettes with a 1-mm path length (Hellma). All spectra were recorded with 0.1 nm resolution and baseline-corrected by subtraction of the buffer spectrum. Secondary structure content was estimated using methods described by Sreerama and Woody ([62]).
In general terms: Circular dichroism is the unequal absorption of left and right circularly polarised light.

The next data set deals with MTIP. The settings on record: 3D7 schizont or merozoite lysate, PfELC-specific antibodies.
A further data set concerns MyoB complex. As to the kind of experiment: immunoprecipitation with GFP-specific antibodies, Western blot: MyoB-GFP. The settings on record: schizont lysate, probed with anti-PfELC antibodies. Format: binding, P. falciparum. The protocol: as §1
Background: In western blotting, separated proteins are transferred to a membrane and probed.

In data set [2] the target is T1, Recombinant His-tagged PfELC (E. coli) (P. falciparum, UniProt Q8IJM4 1-134).
T1 construct: also called His-PfELC; His-ELC; source: E. coli BL21 (DE3), purified (nickel-nitrilotriacetic acid-agarose)
T1 sequence: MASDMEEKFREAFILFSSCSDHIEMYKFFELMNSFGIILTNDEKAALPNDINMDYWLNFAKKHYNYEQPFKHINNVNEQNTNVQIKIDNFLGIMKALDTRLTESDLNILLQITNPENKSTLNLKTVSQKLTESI
As to the kind of experiment: BLI. The settings on record: both partners purified.

Setting [3] is: far-UV CD, 10 μM PfELC, 25 mM Tris-HCl pH 8.0, 50 mM NaCl.

In general, Kd refers to the concentration at which binding is half-saturated.

*: point of attachment. Biotin = O=C1N[C@H]2[C@H](CS[C@H]2CCCCC(=O)*)N1

Take essential light chain [PfELC]: in the data set on MyoA, the “presence in MyoA-GFP immunoprecipitate” value is given as “a 14-kDa protein associated with MyoA in the glideosome complex”. For the same molecule, the “effect of calcium on near- or far-UV CD spectrum” value in data set [1] (1 mM calcium ions) is listed as “no effect on either the near- or far-UV spectrum”. Further, in data set [1] (setting [3]), the turn content stood at 20%, the α helix content came to 32% and the β sheet content is 17%. Further, in the data set with MTIP, the “presence in anti-MTIP immunoprecipitate” value is recorded as “present with MTIP in the same complex”. The “presence in MyoB-GFP immunoprecipitate” value in the data set on MyoB complex is “none was detected associated with the MyoB complex”.

B1: Biotinylated PfMyoA neck peptide 801–818 (peptide)
peptide: Biotin-SGSGIPSLLRVQAHIRKKMVAQ-OH
SMILES: CC[C@H](C)[C@H](NC(=O)[C@H](Cc1c[nH]cn1)NC(=O)[C@H](C)NC(=O)[C@H](CCC(N)=O)NC(=O)[C@@H](NC(=O)[C@H](CCCNC(=N)N)NC(=O)[C@H](CC(C)C)NC(=O)[C@H](CC(C)C)NC(=O)[C@H](CO)NC(=O)[C@@H]1CCCN1C(=O)[C@@H](NC(=O)CNC(=O)[C@H](CO)NC(=O)CNC(=O)[C@H](CO)NC(=O)CCCC[C@@H]1SC[C@@H]2NC(=O)N[C@@H]21)[C@@H](C)CC)C(C)C)C(=O)N[C@@H](CCCNC(=N)N)C(=O)N[C@@H](CCCCN)C(=O)N[C@@H](CCCCN)C(=O)N[C@@H](CCSC)C(=O)N[C@H](C(=O)N[C@@H](C)C(=O)N[C@@H](CCC(N)=O)C(=O)O)C(C)C
notes: source: synthetic peptide (Mimotopes)
B1: the Kd in data set [2] amounted to 320 nM.

B2: Biotinylated PfMyoA neck peptide 786–803 (peptide)
peptide: Biotin-SGSGAAILKHKYKQKVNKNIPS-NH2
SMILES: CC[C@H](C)[C@H](NC(=O)[C@H](C)NC(=O)[C@H](C)NC(=O)CNC(=O)[C@H](CO)NC(=O)CNC(=O)[C@H](CO)NC(=O)CCCC[C@@H]1SC[C@@H]2NC(=O)N[C@@H]21)C(=O)N[C@@H](CC(C)C)C(=O)N[C@@H](CCCCN)C(=O)N[C@@H](Cc1c[nH]cn1)C(=O)N[C@@H](CCCCN)C(=O)N[C@@H](Cc1ccc(O)cc1)C(=O)N[C@@H](CCCCN)C(=O)N[C@@H](CCC(N)=O)C(=O)N[C@@H](CCCCN)C(=O)N[C@H](C(=O)N[C@@H](CC(N)=O)C(=O)N[C@@H](CCCCN)C(=O)N[C@@H](CC(N)=O)C(=O)N[C@H](C(=O)N1CCC[C@H]1C(=O)N[C@@H](CO)C(N)=O)[C@@H](C)CC)C(C)C
notes: as for B1
B2: in data set [2], the Kd came to 480 nM.
